Results: article PMC12344693, “Human Milk Oligosaccharides Multivalently Presented on Defined Synthetic Neo-Glycoproteins Are Nanomolar Ligands of Tandem-Repeat Galectins” (Biomacromolecules, 2025)

Each substance was assayed against Asialofetuin (UniProt P12763) (assay: ELISA; direct ELISA: ASF immobilised on microtiter plates, serial dilution of the galectin in EPBS (PBS with 2 mM EDTA, 50 µL/well); otherwise as the competitive ELISA (anti-His-tag-HRP detection)).
Sequence of Asialofetuin (P12763 19-359): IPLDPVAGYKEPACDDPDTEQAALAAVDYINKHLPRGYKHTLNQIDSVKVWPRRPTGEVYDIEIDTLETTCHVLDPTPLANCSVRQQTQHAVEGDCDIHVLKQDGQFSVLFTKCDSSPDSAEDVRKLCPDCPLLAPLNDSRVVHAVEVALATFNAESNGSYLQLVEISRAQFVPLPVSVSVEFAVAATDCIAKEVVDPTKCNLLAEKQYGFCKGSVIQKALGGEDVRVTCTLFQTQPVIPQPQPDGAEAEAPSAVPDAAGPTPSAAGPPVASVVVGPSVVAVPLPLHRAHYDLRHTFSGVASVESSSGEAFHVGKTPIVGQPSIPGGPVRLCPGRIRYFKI

Kd | Substance
320 nM | Gal-8-AVI-link (natural protein)
180 nM | Gal-9-AVI-link (natural protein)

The substances below were run against His-tagged galectin-1 (C2S) (human) (assay: ELISA; competitive ELISA: ASF (0.1 µM in PBS) immobilised, serial dilutions of the neo-glycoprotein in EPBS incubated with […] Gal-1 or Gal-3 for 2 h; galectin left on ASF detected with anti-His-tag-HRP).
Sequence of His-tagged galectin-1 (C2S) (human) (P09382 other isoform, or with tags, fused parts or gaps): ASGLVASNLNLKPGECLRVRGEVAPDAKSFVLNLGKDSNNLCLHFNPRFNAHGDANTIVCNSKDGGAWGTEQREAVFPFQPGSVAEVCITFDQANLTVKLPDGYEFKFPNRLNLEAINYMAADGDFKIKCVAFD

IC50 | Substance
> 20000 nM | Neo-glycoprotein NGP1 (Lac-HSA) (from UniProt P02768 25-609)
> 20000 nM | Neo-glycoprotein NGP8 (LDN-LN2-HSA) (from UniProt P02768 25-609)
> 20000 nM | Neo-glycoprotein NGP4 (LN1-LN2-HSA) (from UniProt P02768 25-609)

Each substance was assayed against full-length recombinant human galectin-8, N-terminal His-tagged (human) (UniProt O00214) (assay: ELISA; competitive: ASF (0.1 μM in PBS) immobilised on microtiter plates; serial dilutions of inhibitor in EPBS (PBS with 2 mM EDTA) incubated 2 h with a constant galectin concentration ([…] Gal-1, Gal-3, Gal-4; 0.5 μM Gal-8, Gal-9); residual galectin on ASF detected with anti-His-tag-HRP).
Sequence of full-length recombinant human galectin-8, N-terminal His-tagged (human) (O00214 whole entry): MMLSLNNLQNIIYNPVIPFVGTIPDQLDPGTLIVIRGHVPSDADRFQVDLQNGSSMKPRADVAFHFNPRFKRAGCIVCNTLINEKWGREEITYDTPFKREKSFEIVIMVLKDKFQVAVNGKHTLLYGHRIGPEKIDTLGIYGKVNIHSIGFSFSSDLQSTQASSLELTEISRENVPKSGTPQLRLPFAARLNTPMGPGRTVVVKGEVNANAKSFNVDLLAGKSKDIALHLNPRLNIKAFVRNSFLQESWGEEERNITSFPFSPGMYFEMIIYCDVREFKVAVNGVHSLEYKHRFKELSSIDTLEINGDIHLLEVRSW

Substance | IC50
neo-glycoprotein NGP5 (LN2-Lac-HSA) (from UniProt P02768 25-609) | 200 nM
neo-glycoprotein NGP2 (LN2-HSA) (from UniProt P02768 25-609) | > 20000 nM

Further lines, results first:

IC50 | Substance
600 nM | neo-glycoprotein NGP4 (LN1-LN2-HSA) (from UniProt P02768 25-609)
> 20000 nM | neo-glycoprotein NGP1 (Lac-HSA) (from UniProt P02768 25-609)
400 nM | neo-glycoprotein NGP7 (LDN-Lac-HSA) (from UniProt P02768 25-609)
